T1: extracellular domain of human CD73 protein, C-terminus polyhistidine-tagged (human, UniProt P21589 27-547)
T1 construct: also the immunogen; also called CD73-ECD; human CD73-ECD
T1 sequence: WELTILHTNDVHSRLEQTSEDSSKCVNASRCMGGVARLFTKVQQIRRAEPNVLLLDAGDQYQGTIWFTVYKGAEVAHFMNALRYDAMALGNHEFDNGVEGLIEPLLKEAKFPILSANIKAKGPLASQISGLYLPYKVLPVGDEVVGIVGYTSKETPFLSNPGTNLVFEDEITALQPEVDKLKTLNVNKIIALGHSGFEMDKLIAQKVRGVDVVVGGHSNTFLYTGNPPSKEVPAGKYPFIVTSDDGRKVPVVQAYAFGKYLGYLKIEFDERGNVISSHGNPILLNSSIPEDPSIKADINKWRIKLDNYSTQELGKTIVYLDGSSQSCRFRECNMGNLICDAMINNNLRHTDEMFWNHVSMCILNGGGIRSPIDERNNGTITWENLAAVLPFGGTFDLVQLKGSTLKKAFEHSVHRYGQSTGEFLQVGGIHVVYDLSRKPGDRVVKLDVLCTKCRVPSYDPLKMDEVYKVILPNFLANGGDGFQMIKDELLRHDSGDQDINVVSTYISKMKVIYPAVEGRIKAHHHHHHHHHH

T2: CD73 on the surface of human cells (human, UniProt P21589 27-549)
T2 construct: whole, on cells; The cell line of each value is named under assay or readout; also called CD73 on the surface of tumor cells; CD73 enzyme on the surface of MDA-MB-231 cells
T2 sequence (looked up): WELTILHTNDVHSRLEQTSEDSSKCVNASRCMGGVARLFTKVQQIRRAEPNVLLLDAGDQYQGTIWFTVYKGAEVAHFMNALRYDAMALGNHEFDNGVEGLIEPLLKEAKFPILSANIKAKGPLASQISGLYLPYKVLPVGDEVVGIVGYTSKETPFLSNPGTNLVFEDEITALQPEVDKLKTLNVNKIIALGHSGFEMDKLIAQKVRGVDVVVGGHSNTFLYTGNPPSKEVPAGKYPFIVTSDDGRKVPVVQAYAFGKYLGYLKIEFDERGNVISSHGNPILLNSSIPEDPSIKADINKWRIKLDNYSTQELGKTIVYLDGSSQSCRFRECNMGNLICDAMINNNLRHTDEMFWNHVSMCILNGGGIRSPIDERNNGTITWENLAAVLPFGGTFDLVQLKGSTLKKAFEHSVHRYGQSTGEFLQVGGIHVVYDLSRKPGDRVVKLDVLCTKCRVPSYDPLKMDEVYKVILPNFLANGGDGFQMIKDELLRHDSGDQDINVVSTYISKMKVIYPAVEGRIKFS

T3: human recombinant CD73 enzyme (CD73 extracellular region) (human, UniProt P21589 27-549)
T3 sequence (looked up): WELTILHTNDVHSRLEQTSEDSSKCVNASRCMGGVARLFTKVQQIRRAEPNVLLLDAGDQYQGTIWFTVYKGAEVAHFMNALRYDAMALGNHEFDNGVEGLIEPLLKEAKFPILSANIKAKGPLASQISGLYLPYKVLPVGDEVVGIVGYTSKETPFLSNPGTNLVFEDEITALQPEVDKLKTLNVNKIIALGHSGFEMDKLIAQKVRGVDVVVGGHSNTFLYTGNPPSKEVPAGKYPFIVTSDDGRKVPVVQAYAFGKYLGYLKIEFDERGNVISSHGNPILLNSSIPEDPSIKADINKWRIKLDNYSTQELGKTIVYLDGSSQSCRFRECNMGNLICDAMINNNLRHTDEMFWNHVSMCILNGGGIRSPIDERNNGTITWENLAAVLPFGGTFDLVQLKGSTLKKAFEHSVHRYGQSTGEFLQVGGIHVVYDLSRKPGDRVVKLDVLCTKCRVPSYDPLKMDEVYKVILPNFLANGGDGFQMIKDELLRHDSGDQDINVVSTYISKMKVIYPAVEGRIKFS

T4: cynomolgus monkey CD73-ECD (cynomolgus monkey, UniProt A0A2K5V5U7 27-549)
T4 construct: also called cynomolgus CD73-ECD
T4 sequence: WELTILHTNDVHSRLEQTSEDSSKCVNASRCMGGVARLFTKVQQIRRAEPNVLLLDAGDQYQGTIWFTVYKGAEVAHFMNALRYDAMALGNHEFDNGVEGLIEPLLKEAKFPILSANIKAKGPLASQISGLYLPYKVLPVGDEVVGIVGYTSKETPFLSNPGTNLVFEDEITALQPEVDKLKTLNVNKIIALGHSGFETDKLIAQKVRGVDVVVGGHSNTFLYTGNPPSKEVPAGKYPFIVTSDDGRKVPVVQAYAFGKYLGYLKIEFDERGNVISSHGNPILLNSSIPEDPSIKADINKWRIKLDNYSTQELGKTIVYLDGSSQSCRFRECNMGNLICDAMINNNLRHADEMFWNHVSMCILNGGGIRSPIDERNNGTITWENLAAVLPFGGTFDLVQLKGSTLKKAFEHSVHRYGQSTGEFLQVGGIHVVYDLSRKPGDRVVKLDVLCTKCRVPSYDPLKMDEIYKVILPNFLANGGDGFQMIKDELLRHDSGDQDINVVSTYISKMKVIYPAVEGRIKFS

B1: humanized antibody 3D7-HM8-FC1 (Fc fusion)
heavy: QRQLVESGGGLVQPGGSLRLSCAASGFLLDYYVIGWFRQAPGKEREGVSCISGSDRSTYYADSVKGRFTISRDNSKNTVYLQMSSLRAEDTAVYYCAADPSPVTVQAMCLPRFPVPYWGQGTLVTVSSEPKSSDKTHTCPPCPAPEFEGGPSVFLFPPKPKDTLMISRTPEVTCVVVDVSHEDPEVKFNWYVDGVEVHNAKTKPREEQYNSTYRVVSVLTVLHQDWLNGKEYKCKVSNKALPASIEKTISKAKGQPREPQVYTLPPSRDELTKNQVSLTCLVKGFYPSDIAVEWESNGQPENNYKTTPPVLDSDGSFFLYSKLTVDKSRWQQGNVFSCSVMHEALHNHYTQKSLSLSPGK
B2: humanized antibody 3D7-HM9-FC1 (Fc fusion)
heavy: QRQLVESGGGLVQPGGSLRLSCAASGFLLDYYVIGWFRQAPGKEREGVSCISGSDRSTYYADSVKGRFTISRDNAKNTVYLQMSSLRAEDTAVYYCAADPSPVTVQAMCLPRFPVPYWGKGTLVTVSSEPKSSDKTHTCPPCPAPEFEGGPSVFLFPPKPKDTLMISRTPEVTCVVVDVSHEDPEVKFNWYVDGVEVHNAKTKPREEQYNSTYRVVSVLTVLHQDWLNGKEYKCKVSNKALPASIEKTISKAKGQPREPQVYTLPPSRDELTKNQVSLTCLVKGFYPSDIAVEWESNGQPENNYKTTPPVLDSDGSFFLYSKLTVDKSRWQQGNVFSCSVMHEALHNHYTQKSLSLSPGK
B3: humanized antibody 3D7-HM7-FC1 (Fc fusion)
heavy: QRQLVESGGGLVQPGGSLRLSCAASGFLLDYYVIGWFRQAPGKEREGVSCISGSDRSTYYADSVKGRFTISRDNSKNTVYLQMGSLRAEDTAVYYCAADPSPVTVQAMCLPRFPVPYWGQGTLVTVSSEPKSSDKTHTCPPCPAPEFEGGPSVFLFPPKPKDTLMISRTPEVTCVVVDVSHEDPEVKFNWYVDGVEVHNAKTKPREEQYNSTYRVVSVLTVLHQDWLNGKEYKCKVSNKALPASIEKTISKAKGQPREPQVYTLPPSRDELTKNQVSLTCLVKGFYPSDIAVEWESNGQPENNYKTTPPVLDSDGSFFLYSKLTVDKSRWQQGNVFSCSVMHEALHNHYTQKSLSLSPGK
B4: 5-E11 derived antibody 5-E11ASCS (VHH)
VHH: ALQLVESGGGLVQPGGSLRLSCEVSGFTLDYYNIGWFRQAPGKEREGVSSSSASGGSTYYADSVKGRFTISRDNAKNTVYLQMNSLKPEDTGVYYCAAYRGWHPSLDARVYDYWGQGTEVTVSS
B5: humanized antibody 3D7-HM9-FCWT (Fc fusion)
VHH: QRQLVESGGGLVQPGGSLRLSCAASGFLLDYYVIGWFRQAPGKEREGVSCISGSDRSTYYADSVKGRFTISRDNAKNTVYLQMSSLRAEDTAVYYCAADPSPVTVQAMCLPRFPVPYWGKGTLVTVSS
notes: 3D7-HM9 VH on an Fc called FCWT; not shown: FCWT Fc segment

What was measured:
[1] = biological target: T1, extracellular domain of human CD73 …; assay: ForteBio Octet (the filing calls it SPR), by the method of Example 2 according to the text; sheet prints 'Loading Sample ID: FDYKSD-02-His'; traces labelled 50, 25, 12.5, 6.25, 3.13
[2] = biological target: T1, extracellular domain of human CD73 …; assay: SPR as the filing names it (method of Example 2, ForteBio OCTET R2)
Experimental: Surface plasmon resonance (SPR) assay: Protein A sensor was used to immobilize the antibodies, with an immobilization height of about 1.5 nM. […] Affinity detection: equilibrium for 60 s, binding for 180 s, dissociation for 180 s, at a detection temperature of 25° C. Kinetic characterization analysis was performed using the ForteBio OCTET R2 system.
The affinity of the humanized antibody to the antigen was detected by the surface plasmon resonance (SPR) assay method in Example 2.

[3] = biological target: T2, CD73 on the surface of human cells; assay: flow cytometry on NCI-H1299 cells
[4] = biological target: T3, human recombinant CD73 enzyme (CD73 …); assay: cell-based or functional assay
[5] = biological target: T2, CD73 on the surface of human cells; assay: Flow cytometry on NCI-H1299 cells
Experimental: (§1) 100 μL of the test antibodies diluted from 10 μg/mL to 0.016 μg/mL in a 5-fold gradient were used as the primary antibodies, and were mixed with 1×10⁵ tumor cells suspended in 100 μL RPMI-1640 serum-free medium to make a final concentration of 5 μg/mL diluted to 0.008 μg/mL, and then incubated at 4° C. for 1 h. The cells were washed twice with PBS to remove unbound primary antibodies, and then the target cells were incubated with 200 μLPE-labeled secondary antibody at 2 μg/mL at 4° C. for 30 min. The cells were washed twice with PBS to remove unbound secondary antibodies, and finally the cells were resuspended in 200 μL PBS. The binding affinity of the test antibodies to CD73 on the surface of the corresponding cells was measured by flow cytometry.
The binding affinity of the humanized antibodies to NCI-H1299 cells was detected according to the method for determining the binding affinity of CD73 on the surface of tumor cells in Example 5.

[6] = biological target: T4, cynomolgus monkey CD73-ECD; assay: ELISA, coated cynomolgus CD73-ECD, method of Example 3
Experimental: (§2) The CD73 protein extracellular region (CD73-ECD) was diluted to 1 μg/mL using the coating solution, and an ELISA plate was coated at 100 μL/well at 4° C. overnight. Excess antigens were washed away, and the plate was blocked with 1% BSA at room temperature for 2 hours. Then, 5-fold gradient dilutions of each monoclonal antibody were added at 100 μL/well and incubated at room temperature for 1 hour. Unbound antibodies were washed away, and an appropriate concentration of Staphylococcal protein A labeled with horseradish peroxidase was added at 100 μL/well and incubated at room temperature for 0.5 hours. Unbound secondary antibodies were washed away, and TMB color development solution was added to react for about 15 minutes. 1M HCL was added at 50 µL/well to terminate the color development reaction, and then the absorbance was measured at 450 nm and the data was analyzed.
(§3) The affinity of the humanized antibody to human and cynomolgus CD73-ECD was detected according to the ELISA determination method of Example 3.

[7] = biological target: T2, CD73 on the surface of human cells; assay: cell-based or functional assay
[8] = biological target: T1, extracellular domain of human CD73 …; assay: ELISA, coated human CD73-ECD, method of Example 3
Experimental: as §2, §3

[9] = biological target: T2, CD73 on the surface of human cells; assay: flow cytometry on SW1573 cells
Experimental: as §1

[10] = biological target: T1, extracellular domain of human CD73 …; assay: ELISA, coated CD73-ECD, method of Example 3
Experimental: as §2
(§4) Based on the above mutants, 5-E11ASCS was designed and prepared, and the CD73 antigen ELISA binding affinity test was performed according to the method of Example 3.

[11] = biological target: T1, extracellular domain of human CD73 …; assay: ELISA on coated human CD73-ECD (the text rounds this value to 0.018 µg/mL)
Experimental: as §2, §4

Binder	koff [1]	kon [1]	Kd [2]	EC50 [3]	IC50, inhibition of the catalytic function of recombinant human CD73 enzyme [4]	Max MFI [5]	EC50 [6]	EC50, reversal of the AMP inhibition of human T lymphocyte proliferation [7]	IC50, inhibition of the catalytic function of CD73 enzyme on MDA-MB-231 cells [7]	EC50 [8]	EC50 [9]	EC50 [10]	EC50 [11]
B1	0.000913 s⁻¹	779000 M⁻¹ s⁻¹	1.17 nM	0.043 µg/mL	0.0555 µg/mL	106000 MFI							
B2	0.00086 s⁻¹	1.35e+06 M⁻¹ s⁻¹	0.638 nM	0.02 µg/mL	0.0187 µg/mL	105000 MFI	0.00188 µg/mL	0.024 µg/mL	0.098 µg/mL	0.0025 µg/mL			
B3	0.00091 s⁻¹	702000 M⁻¹ s⁻¹	1.3 nM	0.02 µg/mL	0.0456 µg/mL	103000 MFI							
B4											0.015 µg/mL	0.018 µg/mL	0.0179 µg/mL
B5							0.00206 µg/mL		0.126 µg/mL	0.00209 µg/mL			

— patent US20250382376A1 (FUDAN UNIVERSITY, published 2025)
